To fix the notation:
B1: ACT010, humanized anti-GPVI Fab (VL3b + VH3) (Fab, V domains shown)
VH: QVQLVQSGAEVKKPGASVKVSCKASGYTFTSYNMHWVRQAPGQGLEWMGGIYPGNGDTSYNQKFQGRVTMTRDTSTSTVYMELSSLRSEDTAVYYCARGTVVGDWYFDVWGQGTLVTVSS
VL: DIVMTQTPLSLSVSVGERVTITCKSSQSLENSNGNTYLNWYLQKPGQAPQLLIYRVSNRFSGVPDRFSGSGSGTDFTLTISRVEAEDVGVYYCLQLTHVPWTFGQGTKLEIK
B2: ACT005, humanized anti-GPVI Fab (VL2b + VH2) (Fab, V domains shown)
VH: EVQLVESGGGLVQPGGSLRLSCAASGYTFTSYNMHWVRQAPGKGLEWVGGIYPGNGDTSYNADFKRRFTFSLDTSKSTAYLQMNSLRAEDTAVYYCARGTVVGDWYFDVWGQGTLVTVSS
VL: DIQMTQSPSSLSASVGDRVTITCSASQSLENSNGNTYLNWYQQKPGKAPKLLIYRVSNRFSGVPSRFSGSGSGTDFTLTISSLQPEDFATYYCLQLTHVPWTFGQGTKVEIK
B3: ACT016, humanized anti-GPVI Fab (VL8b + VH2) (Fab, V domains shown)
VH: B2 VH
VL: B2 VL with S24R, A25S, L78F, F88I, K112T
B4: ACT006, humanized anti-GPVI Fab (VL2b + VH3) (Fab, V domains shown)
VH: B1 VH
VL: B2 VL
B5: ACT017, humanized anti-GPVI Fab (VL8b + VH3) (Fab, V domains shown)
VH: B1 VH
VL: B2 VL with S24R, A25S, L78F, F88I, K112T
B6: Fab 9O12, Fab fragment of the mouse monoclonal IgG1,k 9O12 (Fab, V domains shown)
VH: QVQLQESGAELVKPGASVKMSCKASGYTFTSYNMHWVKQTPGQGLEWIGGIYPGNGDTSFNQKFKGKATLTADKSSRTAYMQLSSLTSEDSAVYYCARGTVVGDWYFDVWGAGTTLTVSS
VL: DVLMTQTPLSLPVSLGDQASISCRSSQSLENSNGNTYLNWYLQKPGQSPQLLIYRVSNRFSGVLDRFSGSGSGTDFTLKISRVEAEDLGVYFCLQLTHVPWTFGGGTKLEIK

Positions count from the first letter of the chain named.

T1 sequence (Q9HCN6 21-267): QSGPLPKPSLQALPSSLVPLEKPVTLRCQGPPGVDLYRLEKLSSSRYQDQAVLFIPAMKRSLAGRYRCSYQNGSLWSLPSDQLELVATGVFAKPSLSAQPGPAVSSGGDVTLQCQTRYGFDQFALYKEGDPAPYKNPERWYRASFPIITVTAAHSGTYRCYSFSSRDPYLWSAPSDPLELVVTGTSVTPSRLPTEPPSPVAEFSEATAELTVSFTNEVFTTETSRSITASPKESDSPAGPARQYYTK

One assay concerns the target T1, Recombinant GPVI-Fc (extracellular domain of human GPVI fused to human IgG1 Fc domain) (Homo sapiens, UniProt Q9HCN6). The assay can be described thus: ELISA. (In general: ELISA stands for enzyme-linked immunosorbent assay.)
As to B1, the binding result is on record as “binds”.

Another assay deals with T1, Recombinant GPVI-Fc (extracellular …). The assay can be described thus: SPR. On the technique in general: SPR reads the build-up and loss of mass on a sensor chip optically.
For orientation: Kd means a measure of binding affinity in units of concentration. In the case of B2, the Kd was less than 25 nM.
Take B3: the Kd is less than 25 nM.
On the same count and under the same terms, in the case of B4 it was less than 8 nM; in that of B5, 4.1 nM; in that of B6, 17 nM.

(Values after PMC5540112 (mAbs, 2017).)
